{"source": "paper PMC2734569", "about": "“Functional mapping of the fission yeast DNA polymerase δ B-subunit Cdc1 by site-directed and random pentapeptide insertion mutagenesis” (BMC Molecular Biology, 2009)", "binders": {"B1": {"name": "Pol3 (fission yeast DNA polymerase delta catalytic subunit) (natural protein, Schizosaccharomyces pombe, UniProt P30316 1-1086, looked up)", "chain": "MTDRSSNEGVVLNKENYPFPRRNGSIHGEITDVKRRRLSERNGYGDKKGSSSKEKTSSFEDELAEYASQLDQDEIKSSKDQQWQRPALPAINPEKDDIYFQQIDSEEFTEGSVPSIRLFGVTDNGNSILVHVVGFLPYFYVKAPVGFRPEMLERFTQDLDATCNGGVIDHCIIEMKENLYGFQGNEKSPFIKIFTTNPRILSRARNVFERGEFNFEELFPVGVGVTTFESNTQYLLRFMIDCDVVGMNWIHLPASKYQFRYQNRVSNCQIEAWINYKDLISLPAEGQWSKMAPLRIMSFDIECAGRKGVFPDPSIDPVIQIASIVTQYGDSTPFVRNVFCVDTCSQIVGTQVYEFQNQAEMLSSWSKFVRDVDPDVLIGYNICNFDIPYLLDRAKSLRIHNFPLLGRIHNFFSVAKETTFSSKAYGTRESKTTSIPGRLQLDMLQVMQRDFKLRSYSLNAVCSQFLGEQKEDVHYSIITDLQNGTADSRRRLAIYCLKDAYLPQRLMDKLMCFVNYTEMARVTGVPFNFLLARGQQIKVISQLFRKALQHDLVVPNIRVNGTDEQYEGATVIEPIKGYYDTPIATLDFSSLYPSIMQAHNLCYTTLLDSNTAELLKLKQDVDYSVTPNGDYFVKPHVRKGLLPIILADLLNARKKAKADLKKETDPFKKAVLDGRQLALKVSANSVYGFTGATNGRLPCLAISSSVTSYGRQMIEKTKDVVEKRYRIENGYSHDAVVIYGDTDSVMVKFGVKTLPEAMKLGEEAANYVSDQFPNPIKLEFEKVYFPYLLISKKRYAGLFWTRTDTYDKMDSKGIETVRRDNCPLVSYVIDTALRKMLIDQDVEGAQLFTKKVISDLLQNKIDMSQLVITKALSKTDYAAKMAHVELAERMRKRDAGSAPAIGDRVAYVIIKGAQGDQFYMRSEDPIYVLENNIPIDAKYYLENQLSKPLLRIFEPILGEKASSLLHGDHTRTISMAAPSVGGIMKFAVKVETCLGCKAPIKKGKTALCENCLNRSAELYQRQVAQVNDLEVRFARLWTQCQRCQGSMHQDVICTSRDCPIFYMRIAEHKKLQQSVDLLKRFDEMSW", "notes": "DNA polymerase delta catalytic subunit Pol3, S. pombe; prey plasmid named pACT-Pol3 in the results and pGAD2F-Pol3 in the methods; also called Gal4-Pol3; pACT-Pol3; source: yeast two-hybrid fusion, in S. cerevisiae CTY10-5d"}}, "test_in_all_cases": "two-hybrid; LexA-Cdc1 bait (pBTM116 or pBTM116BN) with Gal4-Pol3 prey and co-expressed c-myc-tagged Cdc27 (pAA-Cdc27) in S. cerevisiae CTY10-5d; ONPG liquid culture beta-galactosidase assay, mean of triplicates, as percent of wild-type Cdc1", "settings_in_all_cases": "partners not purified", "key": {"[1]": {"target": "T1, Cdc1 (fission yeast DNA polymerase delta B-subunit), wild type (Schizosaccharomyces pombe, UniProt P87324 1-462)", "T1 construct": "DNA polymerase delta B-subunit Cdc1, S. pombe; cdc1+ cDNA on a 1.5 kb BamHI fragment from pBTM116-Cdc1, ORF 1386 bp; also called WT; LexA-Cdc1; source: yeast two-hybrid fusion, in S. cerevisiae CTY10-5d", "T1 sequence (looked up)": "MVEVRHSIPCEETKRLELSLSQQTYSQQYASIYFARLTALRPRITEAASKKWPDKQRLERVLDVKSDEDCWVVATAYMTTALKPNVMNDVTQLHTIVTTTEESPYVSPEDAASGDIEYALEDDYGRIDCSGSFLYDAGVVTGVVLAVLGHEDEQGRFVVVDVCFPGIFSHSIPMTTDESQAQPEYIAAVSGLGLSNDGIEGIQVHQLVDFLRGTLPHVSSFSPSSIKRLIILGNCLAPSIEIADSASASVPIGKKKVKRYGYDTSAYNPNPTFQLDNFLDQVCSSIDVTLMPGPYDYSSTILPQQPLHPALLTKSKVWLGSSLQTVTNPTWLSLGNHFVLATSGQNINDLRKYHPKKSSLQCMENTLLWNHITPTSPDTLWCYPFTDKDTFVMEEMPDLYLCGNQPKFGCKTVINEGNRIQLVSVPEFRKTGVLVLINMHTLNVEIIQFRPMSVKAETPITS"}, "Cdc1-J9": {"target": "T2, Cdc1-J9 (Schizosaccharomyces pombe, UniProt P87324 1-462, Met-ArgGlyThrProMet-Thr)", "T2 construct": "Cdc1, S. pombe, with a pentapeptide inserted after residue 174; source: yeast two-hybrid fusion, in S. cerevisiae CTY10-5d", "T2 sequence (looked up)": "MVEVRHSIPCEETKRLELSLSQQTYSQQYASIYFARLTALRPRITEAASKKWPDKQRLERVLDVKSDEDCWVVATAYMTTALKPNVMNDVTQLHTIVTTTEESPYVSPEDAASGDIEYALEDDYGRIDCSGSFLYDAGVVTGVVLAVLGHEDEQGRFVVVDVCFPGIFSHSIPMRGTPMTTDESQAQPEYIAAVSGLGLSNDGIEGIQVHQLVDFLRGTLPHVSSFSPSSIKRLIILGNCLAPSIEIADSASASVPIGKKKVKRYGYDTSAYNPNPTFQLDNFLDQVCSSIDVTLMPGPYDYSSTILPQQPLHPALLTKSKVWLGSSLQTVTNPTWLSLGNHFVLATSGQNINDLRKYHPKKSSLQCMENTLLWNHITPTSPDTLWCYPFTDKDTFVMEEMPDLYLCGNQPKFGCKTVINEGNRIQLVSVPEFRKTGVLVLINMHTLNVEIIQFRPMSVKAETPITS"}, "Cdc1-A4": {"target": "T3, Cdc1-A4 (Schizosaccharomyces pombe, UniProt P87324 1-462, Pro303Ala)", "T3 construct": "Cdc1, S. pombe, point mutant; source: yeast two-hybrid fusion, in S. cerevisiae CTY10-5d", "T3 sequence (looked up)": "T1 sequence (looked up) with P303A"}, "Cdc1-J8": {"target": "T4, Cdc1-J8 (Schizosaccharomyces pombe, UniProt P87324 1-462, Lys-GlyValProLeuLys-Pro)", "T4 construct": "Cdc1, S. pombe, with a pentapeptide inserted after residue 83; also called J19; source: yeast two-hybrid fusion, in S. cerevisiae CTY10-5d", "T4 sequence (looked up)": "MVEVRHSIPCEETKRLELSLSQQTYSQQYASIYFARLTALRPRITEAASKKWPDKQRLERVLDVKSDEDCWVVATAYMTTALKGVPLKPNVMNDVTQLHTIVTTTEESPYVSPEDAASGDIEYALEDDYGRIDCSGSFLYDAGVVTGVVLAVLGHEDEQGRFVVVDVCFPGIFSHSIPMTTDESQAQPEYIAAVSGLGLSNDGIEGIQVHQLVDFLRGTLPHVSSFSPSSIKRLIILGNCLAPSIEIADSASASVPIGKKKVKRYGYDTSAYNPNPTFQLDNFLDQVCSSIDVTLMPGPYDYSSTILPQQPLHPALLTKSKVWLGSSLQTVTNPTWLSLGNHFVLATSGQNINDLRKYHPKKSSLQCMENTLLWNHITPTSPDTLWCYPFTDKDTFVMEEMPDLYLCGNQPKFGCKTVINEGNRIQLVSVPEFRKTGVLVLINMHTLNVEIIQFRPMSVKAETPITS"}}, "note": "Where a chain is given by its changes, count along the chain named.", "data": [{"binder": "B1", "values": [{"measurement": "two-hybrid beta-galactosidase activity, % of wild-type Cdc1", "setting": "[1]", "value": 100, "unit": "%"}, {"measurement": "two-hybrid beta-galactosidase activity, % of wild-type Cdc1", "setting": "Cdc1-J9", "value": 91, "unit": "%"}, {"measurement": "two-hybrid beta-galactosidase activity, % of wild-type Cdc1", "setting": "Cdc1-A4", "value": "< 1", "unit": "%"}, {"measurement": "two-hybrid beta-galactosidase activity, % of wild-type Cdc1", "setting": "Cdc1-J8", "value": "< 1", "unit": "%"}]}]}
